The target of this assay is Lhcb2 of Posidonia oceanica, threonine-phosphorylated (Posidonia oceanica (endogenous in leaves)).

The substance “Lhcb1 of Posidonia oceanica (natural protein)” displayed a stoichiometry N (Lhcb1 per Lhcb2) of 2.

Source of the values: paper doi:10.1101/2025.06.20.660723.
